Our source for the IC50 and Kd values is publication PMC3117075 (2011).

One may read the IC50 as the concentration needed to halve the response being measured. High values mean weaker potency, low ones greater potency. The Kd is a measure of binding affinity in units of concentration.

The target in assay [1] is T1, Ac-pSPTF-CONH2 (peptide 1) (Homo sapiens, UniProt Q9BX63, SMILES CC(=O)N[C@@H](COP(=O)(O)O)C(=O)N1CCC[C@H]1C(=O)N[C@H](C(=O)N[C@@H](Cc1ccccc1)C(N)=O)[C@@H](C)O).
T1 chain: Ac-[pS]PTF-NH2
The assay is described as follows: fluorescence polarization competition. A general note: In fluorescence polarisation assays a small probe gives low polarisation when free and higher when bound to something large.

In assay [2] the target is T2, Ac-pSATF-CONH2 (peptide 5) (Homo sapiens, UniProt Q9BX63, SMILES CC(=O)N[C@@H](COP(=O)(O)O)C(=O)N[C@@H](C)C(=O)N[C@H](C(=O)N[C@@H](Cc1ccccc1)C(N)=O)[C@@H](C)O).
T2 chain: Ac-[pS]ATF-NH2
The assay is described as follows: fluorescence polarization competition.

Assay [3] has as its target T3, Ac-EPTF-CONH2 (peptide 2) (Homo sapiens, UniProt Q9BX63).
T3 chain: Ac-EPTF-NH2
Description: fluorescence polarization competition.

The target of assay [4] is T4, Ac-pTPTF-CONH2 (peptide 4) (Homo sapiens, UniProt Q9BX63, SMILES CC(=O)N[C@H](C(=O)N1CCC[C@H]1C(=O)N[C@H](C(=O)N[C@@H](Cc1ccccc1)C(N)=O)[C@@H](C)O)[C@@H](C)OP(=O)(O)O).
T4 chain: Ac-[pT]PTF-NH2
Description: fluorescence polarization competition.

The target of assay [5] is T5, Ac-pSPTF-COOH (peptide 18) (Homo sapiens, UniProt Q9BX63, SMILES CC(=O)N[C@@H](COP(=O)(O)O)C(=O)N1CCC[C@H]1C(=O)N[C@H](C(=O)N[C@@H](Cc1ccccc1)C(=O)O)[C@@H](C)O).
T5 chain: Ac-[pS]PTF-OH
The assay is described as follows: ITC. (In general: In ITC the heat of successive injections is recorded.)

In assay [6] the target is T6, Ac-pSPVF-COOH (peptide 19) (Homo sapiens, UniProt Q9BX63, SMILES CC(=O)N[C@@H](COP(=O)(O)O)C(=O)N1CCC[C@H]1C(=O)N[C@H](C(=O)N[C@@H](Cc1ccccc1)C(=O)O)C(C)C).
T6 chain: Ac-[pS]PVF-OH
Description: fluorescence polarization competition.

For assay [7], the target named is T7, Ac-pSPSF-CONH2 (peptide 8) (Homo sapiens, UniProt Q9BX63, SMILES CC(=O)N[C@@H](COP(=O)(O)O)C(=O)N1CCC[C@H]1C(=O)N[C@@H](CO)C(=O)N[C@@H](Cc1ccccc1)C(N)=O).
T7 chain: Ac-[pS]PSF-NH2
The assay is described as follows: fluorescence polarization competition.

For assay [8], the target named is T5, Ac-pSPTF-COOH (peptide 18). Description: fluorescence polarization competition.
Assay [9] deals with T8, Ac-pSPVF-CONH2 (peptide 7) (Homo sapiens, UniProt Q9BX63, SMILES CC(=O)N[C@@H](COP(=O)(O)O)C(=O)N1CCC[C@H]1C(=O)N[C@H](C(=O)N[C@@H](Cc1ccccc1)C(N)=O)C(C)C).
T8 chain: Ac-[pS]PVF-NH2
Description: fluorescence polarization competition.

The target in assay [10] is T9, Ac-pSPPF-CONH2 (peptide 15) (Homo sapiens, UniProt Q9BX63, SMILES CC(=O)N[C@@H](COP(=O)(O)O)C(=O)N1CCC[C@H]1C(=O)N1CCC[C@H]1C(=O)N[C@@H](Cc1ccccc1)C(N)=O).
T9 chain: Ac-[pS]PPF-NH2
The assay is described as follows: fluorescence polarization competition.

In assay [11] the target is T10, Ac-pSPAF-CONH2 (peptide 6) (Homo sapiens, UniProt Q9BX63, SMILES CC(=O)N[C@@H](COP(=O)(O)O)C(=O)N1CCC[C@H]1C(=O)N[C@@H](C)C(=O)N[C@@H](Cc1ccccc1)C(N)=O).
T10 chain: Ac-[pS]PAF-NH2
The assay is described as follows: fluorescence polarization competition.

Non-standard residues stand in square brackets, D forms with d. pT = C[C@@H](OP(=O)(O)O)[C@H](N)C(=O)O; pS = N[C@@H](COP(=O)(O)O)C(=O)O

B1: BRCA1 BRCT (protein)
chain: VNKRMSMVVSGLTPEEFMLVYKFARKHHITLTNLITEETTHVVMKTDAEFVCERTLKYFLGIAGGKWVVSYFWVTQSIKERKMLNEHDFEVRGDVVNGRNHQGPKRARESQDRKIFRGLEICCYGPFTNMPTDQLEWMVQLCGASVVKELSSFTLGTGVHPIVVVQPDAWTEDNGFHAIGQMCEAPVVTREWVLDSVALYQCQELDTYLIPQIP
Consider B1, for which the IC50 in assay [1] was 4.6 µM; in [2], 15 µM; in [3] it was more than 250 µM; in assay [4], more than 250 µM.

B2: BRCA1 BRCT (protein)
chain: STERVNKRMSMVVSGLTPEEFMLVYKFARKHHITLTNLITEETTHVVMKTDAEFVCERTLKYFLGIAGGKWVVSYFWVTQSIKERKMLNEHDFEVRGDVVNGRNHQGPKRARESQDRKIFRGLEICCYGPFTNMPTDQLEWMVQLCGASVVKELSSFTLGTGVHPIVVVQPDAWTEDNGFHAIGQMCEAPVVTREWVLDSVALYQCQELDTYLI
In assay [5], B2 came in with a Kd of 0.19 µM. Besides, the IC50 in [6] is 1.6 µM; in [7] it was 30.1 µM; in assay [8] it was 1 µM; in [9], 3.2 µM; in assay [10], more than 250 µM; in assay [11], 35 µM.
